In the supplement of paper PMC9170038:

Assays:
MS2 coat protein [1] = assay: apparent KD of MS2 coat protein, switch OFF state (with FMN for OFF switches, without FMN for ON switches); designed switch direction (-1 OFF switch, 1 ON switch): 1; higher = weaker reporter binding; conditions: FMN input: 0 or 200 uM; Eterna round: R93 (includes R88 designs)
Procedure, shortened: (§1)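 With or without constant ligand, designed RNA switches in 100 mM Tris-HCl pH 7.5, 80 mM KCl and 4 mM MgCl2 were titrated with SNAP-549-labelled MS2 coat protein. Concentrations went up in twofold steps from 0.7 or 1.5 nM to 3 µM. The switches had been transcribed on-chip from Illumina sequencing clusters, and apparent KD is the per-design median of normalised cluster binding-curve fits.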

MS2 coat protein [2] = assay: apparent KD of MS2 coat protein, switch ON state; designed switch direction (-1 OFF switch, 1 ON switch): 1; higher = weaker reporter binding; conditions: FMN input: 0 or 200 uM; Eterna round: R93 (includes R88 designs)
Procedure, shortened: as §1

Row | Sequence | apparent KD of MS2 coat protein (MS2 coat protein [1]) | apparent KD of MS2 coat protein (MS2 coat protein [2])
1 | CGGAGACAUGAGGAUCACCCAUGUGAGAAGAGGCGAGGAUAUCGAAAGAAAGAAGAGAAACGAGAAGGCGCGAGCA [salish99-SS1-068] | 24.4 nM | 22.9 nM
2 | CGGAGACAUGAGGAUCACCCAUGUGAGAAGAGGCGAGGAUAUCGAAAGAAAGAAGAGAAACGAGAAGGCGCGAGCG [salish99-SS1-076] | 42.4 nM | 32.8 nM
3 | CGGAGACAUGAGGAUCACCCAUGUGAGAAGAGGCGAGGAUAUCGAAAGAAAGAAGAGAAACGAGAAGGCGCGAGGC [salish99-SS1-079] | 41.2 nM | 21.1 nM
4 | CGGGAAGAGAGAGAGGAUAUCCAAAGGAAAACAUGAGGAUCACCCAUGUAGAAGGUAGGAAAUUGGGAGAAGGCUCAAGAGAGAG [salish99-ss2-134] | 33.7 nM | 37.2 nM
5 | CUGGAACAUGAGGAUCACCCAUGUCACAGAAACUGAGGAUAUGGGCGCUAACAAGCAUGACCAGAAGGCAGACACG [Mamaes] | 27.2 nM | 18 nM
6 | CUGGACCUAGGAUAGGAUAUGUGAAUAAUUACAUGAGGAUCACCCAUGUCCAUUUAUAUGGGAACAUAGAAGGGUUCUGGUUAAG [Mat - Same state - Malcolm Mod - D146] | 66.1 nM | 42.2 nM
7 | GAAAAACAUGAGGAUCACCCAUGUAAGAUAAACACAGGAUAUGCGAAAAGAAAGAAAGAAGCAGAAGGGUGAAGAA [Mat - Same State 1 - Tesla mod - 40] | 33.7 nM | 12.3 nM
8 | GAAAAACAUGAGGAUCACCCAUGUAAGAUAAACACAGGAUAUGCGAAAAUAAAUAAAUAAGCAGAAGGGUGAAGAA [Mat - Same State 1 - Tesla mod - 74] | 35.2 nM | 11.5 nM
9 | GAAAAACAUGAGGAUCACCCAUGUAGAAAUAUGGAAGGAUAUACGAAGACGAAAGUCAAAGUAGAAGGUCUAAAAG [Garnet 96] | 19.5 nM | 17 nM
10 | GAAAAACAUGAGGAUCACCCAUGUAGAAAUAUGGGAGGAUAUACGAAGACGAAAGUCAAAGUAGAAGGCCUAAAGA [Mat - Same State 1 - Eli mod - D103] | 70.4 nM | 26.5 nM
11 | GAAAAACAUGAGGAUCACCCAUGUAGAAAUAUGGGAGGAUAUACUAAGACGAAAGUCGAAGUAGAAGGCCUAAAAG [Same State 1.4f (Mat - Mod of Eli - )] | 54.2 nM | 21.7 nM
12 | GAAAAACAUGAGGAUCACCCAUGUAGAAAUAUGGGAGGAUAUUCAAAGACGAAAGUCAAAGAAGAAGGCCUAAAAG [Mat - Same State 1 - Eli mod - 36] | 113 nM | 29.1 nM
13 | GAAAAACAUGAGGAUCACCCAUGUGAAAAUAUGGGAGGAUAUACAAAGACGAAAGUCAAAGUAGAAGGCCUAAGAG [Garnet 34] | 72 nM | 22.1 nM
14 | GAAAAACAUGAGGAUCACCCAUGUGACAACAUGGGAGGAUAUACAUGGACGAUAGUCAAAGUAGAAGGCCUAAAAG [Garnet 63] | 24.4 nM | 142 nM
15 | GAAAAACAUGAGGAUCACCCAUGUGAGAAUAUGGAAGGAUAUACAAAGACGAGAGUCAAAGUAGAAGGUCUAAAAG [Mat - Same State 1 - Eli mod - D21] | 31.7 nM | 22.1 nM
16 | GAAAAACAUGAGGAUCACCCAUGUGAGAAUAUGGGAGGAUAUACAAAGACGAAAGUCAAAGUAGAAGGCCUAAAAG [Mat - Same State 1 - Eli mod - D6] | 94.5 nM | 27.6 nM
17 | GAAAAACAUGAGGAUCACCCAUGUGAGAAUAUGGGAGGAUAUACGAAGACGAGAGUCGAAGUAGAAGGCCUAAAAG [Mat - Same State 1 - Eli mod - 31] | 119 nM | 28.2 nM
18 | GAAAAACAUGAGGAUCACCCAUGUGAGAUAAACACAGGAUAUGCGAAAAGAAACAAAUAAGCAGAAGGGUGAAAAG [Mat - Same State 1 - Tesla mod - 81] | 282 nM | 44.1 nM
19 | GAAAAACAUGAGGAUCACCCAUGUGAUAAUAUGGGAGGAUAUACAAAGACGAAAGUCAAAGUAGAAGGCCUAAAAG [Garnet 35] | 73.2 nM | 40.5 nM

Row | Sequence | apparent KD of MS2 coat protein (MS2 coat protein [1]) | apparent KD of MS2 coat protein (MS2 coat protein [2])
20 | GAAAAACAUGAGGAUCACCCAUGUGGAAAUAUGGGAGGAUAUACUAUGACGAAAGUCAAAGUAGAAGGCCUGAUAG [JL S1 M-MoE mod 5 In the Read] | 124 nM | 24.7 nM
21 | GAAAAACAUGAGGAUCACCCAUGUGUAAACAUGGGAGGAUAUACAAAGACGUAAGUCAAAGUAGAAGGCCUAAGAG [Garnet 37] | 15.3 nM | 128 nM
22 | GAAAAACAUGAGGAUCACCCAUGUGUAAAUAUGGAAGGAUAUACAAAGACGAAAGUCAAAGUAGAAGGUCUAAAAG [Mat - Same State 1 - Eli mod - D16] | 28.9 nM | 23.5 nM
23 | GAAAAUAAAAGACAGGAUAUCCAAAAGAAAACAUGAGGAUCACCCAUGUAAAGAAAAUAAAAAUGGGAGAAGGGUCAAAUAAAAG [Mat - Same State 2 - JL mod - D52] | 56.6 nM | 64.8 nM
24 | GAAGACAUAGUUCAGGAUAUAGGAAUAGUCACAUGAGGAUCACCCAUGUGCAUUUAUAUGCGCGCUUAGAAGGGAGGUAGAUAUA [SameState2 Malc#20] | 20.8 nM | 23.8 nM
25 | GACAGACAUGAGGAUCACCCAUGUACAAACGUACAAGGAUAUGUGUGGAAACCGUACUAUACAGAAGGUGUCUGUC [SS1 - 90] | 90.3 nM | 126 nM
26 | GACGAACAUGAGGAUCACCCAUGUCAAAACGGACAAGGAUAUGUGUGGAAACCGUACUAUACAGAAGGUGUCUGUC [SS1 - 98] | 21.3 nM | 16.1 nM
27 | GACUGCGAUGUGAAGGAUAUCCGCGACUGGACAUGAGGAUCACCCAUGUAUGCUUAGAACAUGCCGGAGAAGGUCACGAAUGAUU [JR_SS002_Sub1217] | 32.3 nM | 20.6 nM
28 | GAGAAGAAGAGAGAGGAUAUCCAAAGGAAAACAUGAGGAUCACCCAUGUAAAAGGUAGGAAAUUGGGAGAAGGCUCAGAAGAGGG [salish99-ss2-030] | 26.6 nM | 23.2 nM
29 | GAGAUACAUGAGGAUCACCCAUGUUGAAAUAUGGGAGGAUAUACAAGGUCGAAAGAUAAGGUAGAAGGCCUAAAAG [LROPPY Same State 1 - v03_deltaG=1.1] | 176 nM | 39.1 nM
30 | GAGCCGCGGGCACAGGAUAUGCUCGGGCAAACAUGAGGAUCACCCAUGUGCGGCCUAAAUACGACGCAGAAGGGUGCUGGUGUGU [Orxeis] | 147 nM | 44 nM
31 | GAGGACAUAGUAUAGGAUAUAUGAAUAAUUACAUGAGGAUCACCCAUGUCCAUUUAUAUGGGAACAUAGAAGGGUGGUAGUUAUC [SameState2 Malc#33] | 202 nM | 102 nM
32 | GAGGACCUAGGAUAGGAUAUAUGAAUAAUUACAUGAGGAUCACCCAUGUCCAUUUAUAUGGGAACAUAGAAGGGUUGUGGUUAUC [SameState2 Malc#36] | 178 nM | 147 nM
33 | GAGGACCUAGGAUAGGAUAUGUGAAAAAUUACAUGAGGAUCACCCAUGUCCAUUUAUAUGGGAACAUAGAAGGGUUCUGGUUAUC [Mat - Same state - Malcolm Mod - D150] | 61.6 nM | 35.7 nM
34 | GAUAAACAUGAGGAUCACCCAUGUAGAAAUAUGGGAGGAUAUACAAAGACGAUAGUCAAAGUAGAAGGCCUAAAAG [77%, Mat - Mod of Eli - With 2 more U's] | 85.9 nM | 24.8 nM
35 | GAUAAACAUGAGGAUCACCCAUGUAGAUAUAUGGGAGGAUAUACAUAGACGAUAGUCAUAGUAGAAGGCCUAAUAG [77%, Mat - Mod of Eli - With 6 more U's] | 119 nM | 35.6 nM
36 | GAUUACAUAGUUCAGGAUAUAUGAAUAGUCACAUGAGGAUCACCCAUGUCCAUUUAUAUGGGCACAUAGAAGGGAGGUAGGGAUC [Mat - Same state - Malcolm Mod - D148] | 571 nM | 392 nM
37 | GCAGGGCUAAACUAGGAUAUGGGUGUCUAGACAUGAGGAUCACCCAUGUGAUGGCAAAACAAAGCUCAGAAGGAGUGGUAGCCCA [Quendi] | 75.4 nM | 11.9 nM
38 | GCUCCAGCUAGCAAGGAUAUGUAGGAUGCUACAUGAGGAUCACCCAUGUGCUGAAAUAAGUCCCGGCAGAAGGUGUGACUGGAGC [Quleorla] | 19.9 nM | 13.8 nM
